{"source": "patent US20250346643A1", "about": "“TROPOMYOSIN KINASE RECEPTOR (TRK) LIGANDS AS THERAPEUTICS TO SUPPORT LIVER REGENERATION” (Vanderbilt University, priority 2024, published 2025)", "test": "Storage stability of solubilized recombinant NTF3 at -80 C", "type": "physicochemical", "conditions": "solubilized in 0.1% BSA/PBS, stored at -80 C", "description": "Treatment with recombinant NTF3. Four months old mice were injected via tail vein for 4 consecutive days with recombinant NTF3 (STEMCELL technology, Vancouver, Canada; cat. 78074, lots 1000070683, 1000077434) diluted in sterile 0.9% saline (0.9% NaCl) or vehicle only. Mice were weighed daily and recombinant NTF3 given at 20 ng/g body weight or 100 ng/g body weight, respectively. Lyophilized NTF3 was solubilized in 0.1% BSA/PBS (bovine serum albumin, Sigma-Aldrich, St. Louis, MO; A3059) and stored at −80° C. until use.\nHuman HepG2 and mouse AML12 cells were grown in 6-well plates. Cells were treated with NTF3 (20 ng/ml) purchased from STEMCELL technologies, Vancouver, Canada (cat. 78074), R&D Systems, Minneapolis, MN (267-N3), Gibco, Waltham, MA (PHC7036) and/or Loxo-195 (5-10 nM) (Selleckchem, Houston, TX; S8636) in complete growth media without L-glutamine for 2 hours. Lyophilized NTF3 was solubilized with sterile filtered PBS supplemented with 0.1% BSA, aliquoted and stored at −80° C. until use. […] Protein concentration of supernatants were determined by Direct Detect Spectrophotometer (MilliporeSigma, Burlington, MA). […]\nImmunoblotting. […] Protein concentration of supernatants was determined by Direct Detect Spectrophotometer (MilliporeSigma, Burlington, MA). […] The protein concentration of supernatants was determined by a Direct Detect® spectrophotometer (MilliporeSigma, Burlington, MA). […]"}
{"substance": "NTF3: neurotrophin-3, recombinant protein; HSC-derived hepatocyte mitogen, ligand of TRKA, TRKB, TRKC", "values": [{"measurement": "storage time at which activity and protein concentration declined significantly", "result": "approximately 3 months"}]}
